Data on one substance can be found in patent WO2021180110A1.

In the test the target is CD147 (human) (UniProt P35613). The test is described as follows: SPR, BIAcore 3000, CD147 amine-coupled on CM5 chip, Spike-RBD as analyte.

In turn, “new coronavirus S protein (COVID-19 Spike-RBD) (from UniProt P0DTC2 319-541) (ligand; other documents disagree on this pair)” had a Kd of 185 nM, a koff of 0.00206 s⁻¹ and a kon of 11100 M⁻¹ s⁻¹.
